Values of other authors as cited in patent publication US20210338656A1, “IMMUNOSTIMULATORY AGENTS IN COMBINATION WITH ANGIOGENESIS INHIBITORS” (Alkermes Pharma Ireland Limited, priority 2020, published 2021).

System: CD8+ T cells, NK cells, Tregs
Details: human patients; cited from earlier work

B1: fusion protein of SEQ ID NO: 1: circularly permuted (cp) IL-2 variant fused to the extracellular domain of the IL-2Rα portion of the IL-2 receptor (protein)
chain: SKNFHLRPRDLISNINVIVLELKGSETTFMCEYADETATIVEFLNRWITFSQSIISTLTGGSSSTKKTQLQLEHLLLDLQMILNGINNYKNPKLTRMLTFKFYMPKKATELKHLQCLEEELKPLEEVLNLAQGSGGGSELCDDDPPEIPHATFKAMAYKEGTMLNCECKRGFRRIKSGSLYMLCTGNSSHSSWDNQCQCTSSATRNTTKQVTPQPEEQKERKTTEMQSPMQPVDQASLPGHCREPPPWENEATERIYHFVVGQMVYYQCVQGYRALHRGPAESVCKMTHGKTRWTQPQLICTG
modifications: Human cpIL-2IL-2R-alpha
notes: circularly permuted (cp) IL-2 variant fused to the extracellular domain of the IL-2Rα portion of the IL-2 receptor
activation of T regs: absence of dose dependent activation
expansion of CD8+ T cells and NK cells: in a dose dependent manner
relative expansion of immunosuppressive Tregs as compared to high dose rhIL-2: at least two fold less
